Test results taken from paper PMC9249340 (FEBS Open Bio, 2022).
Positions count from the first letter of the chain named. Names and notes keep the numbering of the source.

B1: GDAP1Δ295‐358 wild type (domain or fragment, human, UniProt Q8TB36 1-294, looked up)
chain: MAERQEEQRGSPPLRAEGKADAEVKLILYHWTHSFSSQKVRLVIAEKALKCEEHDVSLPLSEHNEPWFMRLNSTGEVPVLIHGENIICEATQIIDYLEQTFLDERTPRLMPDKESMYYPRVQHYRELLDSLPMDAYTHGCILHPELTVDSMIPAYATTRIRSQIGNTESELKKLAEENPDLQEAYIAKQKRLKSKLLDHDNVKYLKKILDELEKVLDQVETELQRRNEETPEEGQQPWLCGESFTLADVSLAVTLHRLKFLGFARRNWGNGKRPNLETYYERVLKRKTFNKVLG
notes: GDAP1, human; printed as GDAP1Δ295-358 (residues 295-358 deleted); also called wtGDAP1Δ295‐358; GDAPΔ295‐358; source: E. coli BL21(DE3), purified (Ni-NTA, TEV cleavage, second Ni-NTA, SEC on Superdex 200); not shown: His6, N-terminal, cleaved
B2: GDAP1Δ303‐358 R120W (domain or fragment, human, UniProt Q8TB36 1-302, looked up)
chain: MAERQEEQRGSPPLRAEGKADAEVKLILYHWTHSFSSQKVRLVIAEKALKCEEHDVSLPLSEHNEPWFMRLNSTGEVPVLIHGENIICEATQIIDYLEQTFLDERTPRLMPDKESMYYPWVQHYRELLDSLPMDAYTHGCILHPELTVDSMIPAYATTRIRSQIGNTESELKKLAEENPDLQEAYIAKQKRLKSKLLDHDNVKYLKKILDELEKVLDQVETELQRRNEETPEEGQQPWLCGESFTLADVSLAVTLHRLKFLGFARRNWGNGKRPNLETYYERVLKRKTFNKVLGHVNNILIS
notes: GDAP1, human; printed as GDAP1Δ303-358 (residues 303-358 deleted) with the CMT2K-linked mutation R120W; Disease mutation that occurs in patients; also called R120W GDAP1; GDAP1∆303‐358 R120W; source: E. coli BL21(DE3), purified (Ni-NTA, TEV cleavage, second Ni-NTA, SEC); not shown: His6, N-terminal, cleaved
B3: GDAP1Δ303‐358 H123R (domain or fragment, human, UniProt Q8TB36 1-302, looked up)
chain: B2 chain with W120R, H123R
notes: GDAP1, human; printed as GDAP1Δ303-358 (residues 303-358 deleted) with the Finnish founder CMT2K mutation H123R; Disease mutation that occurs in patients; also called H123R GDAP1; GDAP1∆303‐358 H123R; source: E. coli BL21(DE3), purified (Ni-NTA, TEV cleavage, second Ni-NTA, SEC); not shown: His6, N-terminal, cleaved

How the values were obtained:
[1] = biological target: the molecule itself; test: crystal structure; wild-type GDAP1Δ295-358, new crystal form, +8 °C, 200 mM NH4 formate, 25% PEG3350, 8.64 mg/mL protein
[2] = biological target: the molecule itself; test: SEC-SAXS; 50 µL at 8.5-10 mg/mL on a BioSEC3-300 column, 25 mM HEPES pH 7.5, 300 mM NaCl, +15 °C; monomer to dimer

Protein | binding result [1] | stoichiometry N [2]
B1 | binds | 
B2 |  | 2
B3 |  | 2
